Experiment [1] deals with T1, cynomolgus monkey LY6K (R&D Systems) (cynomolgus monkey).
T1 construct: also called cyLY6K
Description: ELISA, coated antigen, IgG1 at 10 ug/ml.

In a further experiment the target is T2, rat LY6K (R&D Systems) (rat).
T2 construct: also called rLY6K
Description: ELISA, coated antigen, IgG1 at 10 ug/ml.

The target in experiment [2] is T3, human LY6E (R&D Systems) (human, UniProt Q16553 21-101, limits assumed).
T3 construct: also called hLY6E
T3 sequence (looked up): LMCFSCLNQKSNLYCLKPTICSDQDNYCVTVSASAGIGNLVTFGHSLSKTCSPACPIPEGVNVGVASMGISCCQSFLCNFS
Description: ELISA, coated antigen, IgG1 at 10 ug/ml.

In another experiment the target is T4, hLY6K-mFc (human, UniProt Q17RY6 18-138).
T4 construct: not shown: mFc
T4 sequence: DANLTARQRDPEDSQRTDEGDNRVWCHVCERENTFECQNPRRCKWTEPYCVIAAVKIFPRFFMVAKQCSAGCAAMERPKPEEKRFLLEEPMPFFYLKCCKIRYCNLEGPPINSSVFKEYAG
Description: SPR (Carterra LSA), mAb captured on anti-human IgG-Fc, antigen as analyte.

The next experiment addresses cyLY6K-mFc (cynomolgus monkey). Described as above.
The target in a further experiment is T5, rLY6K-mFc (rat).
T5 chain: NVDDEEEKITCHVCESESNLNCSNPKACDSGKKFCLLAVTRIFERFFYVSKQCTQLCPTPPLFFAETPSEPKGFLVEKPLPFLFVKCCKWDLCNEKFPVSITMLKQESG
Described as above.

In the next experiment the target is T6, Human LY6K (R&D Systems) (human, UniProt Q17RY6 18-138, limits assumed).
T6 construct: Bought from R&D Systems, coated on ELISA plates; also called hLY6K
T6 sequence: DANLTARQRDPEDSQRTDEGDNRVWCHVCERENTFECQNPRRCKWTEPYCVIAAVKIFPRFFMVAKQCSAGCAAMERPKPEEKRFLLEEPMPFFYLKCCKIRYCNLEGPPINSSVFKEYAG
Description: ELISA, coated antigen, IgG1 at 10 ug/ml.

In experiment [3] the target is T7, cell-surface anchored LY6K (human, UniProt Q17RY6 18-138).
T7 construct: the cell is named under assay; also called LY6K on target cells
T7 sequence: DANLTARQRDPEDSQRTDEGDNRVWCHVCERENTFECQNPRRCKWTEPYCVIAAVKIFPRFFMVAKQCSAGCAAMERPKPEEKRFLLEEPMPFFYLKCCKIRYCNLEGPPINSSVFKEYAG
Description: IHC, paraffin sections of 293 cells overexpressing LY6K.

The target in a further experiment is T8, hLY6K-his (human, UniProt Q17RY6 18-138, limits assumed).
T8 construct: not shown: his tag
T8 sequence: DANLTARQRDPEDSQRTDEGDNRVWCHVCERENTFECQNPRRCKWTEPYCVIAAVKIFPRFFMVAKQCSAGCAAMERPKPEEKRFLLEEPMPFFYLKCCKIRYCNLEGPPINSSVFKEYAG
Description: SPR (Carterra LSA), mAb captured on anti-human IgG-Fc, antigen as analyte.

Experiment [4] deals with T9, recombinant human LY6K (Wuxi) (human, UniProt Q17RY6 18-138).
T9 construct: Limits of the construct not clearly stated; also called Human LY6K (Wuxi LY^KGLY138(1-38TR)_8His)
T9 sequence: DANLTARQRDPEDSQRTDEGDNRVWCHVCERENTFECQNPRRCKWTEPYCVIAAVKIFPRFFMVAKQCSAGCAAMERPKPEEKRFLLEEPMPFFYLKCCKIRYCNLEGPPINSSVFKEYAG
Kind of experiment: capture ELISA (MSD): antibody coated as capture at 2 µg/mL, recombinant human LY6K titrated, sulfo-tagged polyclonal anti-hLY6K (AF6648) for detection; EC50 is the LY6K concentration.

In experiment [5] the target is T9, recombinant human LY6K (Wuxi). Description: ELISA, LY6K coated at 2 ug/mL, HRP-labelled mAb titrated.
The next experiment has as its target T10, Ly6H.
T10 chain: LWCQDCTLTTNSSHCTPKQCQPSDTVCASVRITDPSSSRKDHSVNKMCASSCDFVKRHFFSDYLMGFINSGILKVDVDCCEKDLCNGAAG
Description: ELISA, antigen coated on the plate, antibody as human IgG1, anti-human F(ab)2 HRPO.

Experiment [6] addresses T3, human LY6E (R&D Systems). Described as above.
Another experiment has as its target T11, Ly6D.
T11 chain: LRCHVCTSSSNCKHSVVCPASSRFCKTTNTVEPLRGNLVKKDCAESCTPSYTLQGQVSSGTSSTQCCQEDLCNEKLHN
Described as above.

B1: anti-LY6K antibody 3047 (antibody, V domains shown)
VH: EVQLVESGGGLVQPGGSLRLSCAASGFTFSSYSMNWVRQAPGKGLEWVSGINWNGGSTGYADSVKGRFTISRDNAKNSLYLQMNSLRAEDTALYYCARGRLFDYWGQGTLVTVSS
VL: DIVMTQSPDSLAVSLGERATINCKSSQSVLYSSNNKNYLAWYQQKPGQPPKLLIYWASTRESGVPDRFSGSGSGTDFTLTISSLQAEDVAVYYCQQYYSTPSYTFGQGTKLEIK
B1: the “% of maximum of commercial anti-LY6K mAb on human LY6K” value (“% of maximum … on human LY6K” below) in experiment [1] turned out to be 3%; with rat LY6K (R&D Systems) it was 1.5%; in the experiment with human LY6E (R&D Systems) [2] it was 1.7%. Also, the Kd in the experiment with hLY6K-mFc was 2720 nM; with cyLY6K-mFc it was 21.6 µM; with rLY6K-mFc it was 129 nM.

B2: anti-LY6K antibody 3522 (antibody, V domains shown)
VH: QVQLQQSGPGLVKPSQTLSLTCAISGDSVSSNSAAWNWIRQSPSRGLEWLGRTYYRSKWYNDYAVSVKSRITINPDTSKNQFSLQLNSVTPEDTAVYYCARECSGSYYRFDPWGQGTLVTVSS
VL: DIVMTQTPLSSPVTLGQPASISCRSSQSLVHSNGNTYLSWLQQRPGQPPRLLIYKISHRFSGVPDRFSGSGAGTDFTLKIRRVEAEDVGVYYCMQATQFPYTFGQGTKLEIK
Regarding B2, the “% of maximum … on human LY6K” value in experiment [1] came to 2.6%; with rat LY6K (R&D Systems), 0.7%; with human LY6E (R&D Systems) [2], 4.3%; in the experiment with Human LY6K (R&D Systems), 2.1%. Moreover, the values for the binding result (in experiment [3]; with hLY6K-his; with hLY6K-mFc) were “no binding (tested: 5 ug/ml)”, “no binding (tested: up to 1.266-6 M as printed)” and “no binding (tested: up to 1.266-6 M as printed)”, respectively.

B3: anti-LY6K antibody 3082 (antibody, V domains shown)
VH: EVQLVESGGGLVKPGGSLRLSCAASGFTFSSSSMNWVRQAPGKGLEWVSSISRSSYYIYYADSVEGRFTISRDNAKNSLYLQMNSLRAEDTAVYYCAKIGSSSEGVEDYYYYYYMDVWGKGTTVTVSS
VL: DIQMTQSPSSLSASVGDRVTITCRASQNINSYLNWYQQKPGKAPKLLIYAASSLQSGVPSRFSGSGSGTDFTLTISSLQPEDFATYYCHQSYSTPLTFGGGTKVEIK
Consider B3, for which the EC50 in experiment [4] worked out at 0.0958 µg/mL; in experiment [5] it was 4.59 nM. The “% of maximum … on human LY6K” value in experiment [1] is 95.2%; with rat LY6K (R&D Systems), -0.5%; in the experiment with human LY6E (R&D Systems) [2], 2.1%; with Human LY6K (R&D Systems) it was 87.2%. In addition, the Kd with hLY6K-his was 2.06 nM; in the experiment with hLY6K-mFc, 0.0444 nM; in the experiment with cyLY6K-mFc it was 0.000103 µM; with rLY6K-mFc, 240 nM. Also, the binding result with Ly6H, in the experiment with human LY6E (R&D Systems) [6] and with Ly6D was “no binding (tested: 10 µg/ml)” throughout.
